According to patent US20180155451A1 (published 2018):

B1: GpH7-B3 variant L235_09D/GpL16-k0 (antibody, human IgG1, kappa)
heavy: not shown
light: DIVMTQSPLSLPVTPGEPASISCQASESLVHSNRNTYLHWYLQKPGQSPQLLIYKVSNRFSGVPDRFSGSGSGTDFTLKISRVEAEDVGVYYCSQNTHVPPTFGQGTKVEIERTVAAPSVFIFPPSDEQLKSGTASVVCLLNNFYPREAKVQWKVDNALQSGNSQESVTEQDSKDSTYSLSSTLTLSKADYEKHKVYACEVTHQGLSSPVTKSFNRGEC
notes: also called Ho Ab L235_09D
B2: GpH7-B3 variant S239_06M/GpL16-k0 (antibody, human IgG1, kappa)
heavy: not shown
light: B1 light
notes: also called Ho Ab S239_06M
B3: GpH7-B3 variant N325_20W/GpL16-k0 (antibody, human IgG1, kappa)
heavy: not shown
light: B1 light
notes: also called Ho Ab N325_20W
B4: GpH7-B3 variant P271_10E/GpL16-k0 (antibody, human IgG1, kappa)
heavy: not shown
light: B1 light
notes: also called Ho Ab P271_10E
B5: GpH7-B3 variant T335_18N/GpL16-k0 (antibody, human IgG1, kappa)
heavy: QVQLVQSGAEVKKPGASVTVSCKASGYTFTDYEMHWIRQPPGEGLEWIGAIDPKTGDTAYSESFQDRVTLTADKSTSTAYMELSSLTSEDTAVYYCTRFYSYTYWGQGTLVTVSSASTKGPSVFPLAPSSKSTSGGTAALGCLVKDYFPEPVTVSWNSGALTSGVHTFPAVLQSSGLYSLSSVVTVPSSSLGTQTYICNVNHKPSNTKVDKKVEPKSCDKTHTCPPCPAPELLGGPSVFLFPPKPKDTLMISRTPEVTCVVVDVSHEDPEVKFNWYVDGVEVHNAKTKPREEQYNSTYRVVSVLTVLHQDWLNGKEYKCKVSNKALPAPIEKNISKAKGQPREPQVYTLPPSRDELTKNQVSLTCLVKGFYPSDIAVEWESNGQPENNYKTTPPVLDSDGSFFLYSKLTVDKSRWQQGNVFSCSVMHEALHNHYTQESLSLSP
light: B1 light
notes: also called Ho Ab T335_18N
B6: GpH7-B3 variant P271_09D/GpL16-k0 (antibody, human IgG1, kappa)
heavy: not shown
light: B1 light
notes: also called Ho Ab P271_09D
B7: GpH7-B3 variant P238_20W/GpL16-k0 (antibody, human IgG1, kappa)
heavy: not shown
light: B1 light
notes: also called Ho Ab P238_20W
B8: GpH7-B3 variant P331_06M/GpL16-k0 (antibody, human IgG1, kappa)
heavy: not shown
light: B1 light
notes: also called Ho Ab P331_06M
B9: GpH7-B3 variant P238_06M/GpL16-k0 (antibody, human IgG1, kappa)
heavy: not shown
light: B1 light
notes: also called Ho Ab P238_06M
B10: GpH7-B3 variant S337_15Y/GpL16-k0 (antibody, human IgG1, kappa)
heavy: not shown
light: B1 light
notes: also called Ho Ab S337_15Y
B11: GpH7-B3 variant P238_03V/GpL16-k0 (antibody, human IgG1, kappa)
heavy: not shown
light: B1 light
notes: also called Ho Ab P238_03V
B12: GpH7-B3 variant N325_03V/GpL16-k0 (antibody, human IgG1, kappa)
heavy: not shown
light: B1 light
notes: also called Ho Ab N325_03V
B13: GpH7-B3 variant T335_10E/GpL16-k0 (antibody, human IgG1, kappa)
heavy: not shown
light: B1 light
notes: also called Ho Ab T335_10E
B14: GpH7-B3 variant N325_09D/GpL16-k0 (antibody, human IgG1, kappa)
heavy: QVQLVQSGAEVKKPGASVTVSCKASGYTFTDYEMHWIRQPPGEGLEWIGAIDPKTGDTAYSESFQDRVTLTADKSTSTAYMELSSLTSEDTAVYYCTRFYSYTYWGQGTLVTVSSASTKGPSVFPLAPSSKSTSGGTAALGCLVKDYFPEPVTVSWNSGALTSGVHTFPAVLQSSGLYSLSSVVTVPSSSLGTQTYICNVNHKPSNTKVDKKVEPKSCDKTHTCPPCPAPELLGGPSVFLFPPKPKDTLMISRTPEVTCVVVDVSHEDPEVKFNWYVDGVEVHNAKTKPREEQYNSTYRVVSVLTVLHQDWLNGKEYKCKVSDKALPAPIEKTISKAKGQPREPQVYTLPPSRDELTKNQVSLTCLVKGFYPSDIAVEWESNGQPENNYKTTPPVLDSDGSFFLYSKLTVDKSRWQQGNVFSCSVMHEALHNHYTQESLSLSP
light: B1 light
notes: also called Ho Ab N325_09D
B15: GpH7-B3 variant L328_13S/GpL16-k0 (antibody, human IgG1, kappa)
heavy: not shown
light: B1 light
notes: also called Ho Ab L328_13S
B16: GpH7-B3 variant N325_06M/GpL16-k0 (antibody, human IgG1, kappa)
heavy: not shown
light: B1 light
notes: also called Ho Ab N325_06M
B17: GpH7-B3 variant N325_13S/GpL16-k0 (antibody, human IgG1, kappa)
heavy: not shown
light: B1 light
notes: also called Ho Ab N325_13S
B18: GpH7-B3 variant T335_15Y/GpL16-k0 (antibody, human IgG1, kappa)
heavy: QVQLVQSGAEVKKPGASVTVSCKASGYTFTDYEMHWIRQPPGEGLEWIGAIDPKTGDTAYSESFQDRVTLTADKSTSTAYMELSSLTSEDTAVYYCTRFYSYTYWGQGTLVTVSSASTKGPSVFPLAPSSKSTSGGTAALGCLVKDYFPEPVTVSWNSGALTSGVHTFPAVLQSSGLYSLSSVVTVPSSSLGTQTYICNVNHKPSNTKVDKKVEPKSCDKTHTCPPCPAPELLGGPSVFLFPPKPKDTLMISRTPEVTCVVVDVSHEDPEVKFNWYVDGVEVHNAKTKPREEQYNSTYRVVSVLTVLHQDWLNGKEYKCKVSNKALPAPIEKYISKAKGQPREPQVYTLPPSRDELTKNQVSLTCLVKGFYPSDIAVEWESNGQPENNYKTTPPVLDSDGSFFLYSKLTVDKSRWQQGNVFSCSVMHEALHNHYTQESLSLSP
light: B1 light
notes: also called Ho Ab T335_15Y
B19: GpH7-B3 variant P238_09D/GpL16-k0 (antibody, human IgG1, kappa)
heavy: not shown
light: B1 light
notes: also called Ho Ab P238_09D
B20: GpH7-B3 variant S337_20W/GpL16-k0 (antibody, human IgG1, kappa)
heavy: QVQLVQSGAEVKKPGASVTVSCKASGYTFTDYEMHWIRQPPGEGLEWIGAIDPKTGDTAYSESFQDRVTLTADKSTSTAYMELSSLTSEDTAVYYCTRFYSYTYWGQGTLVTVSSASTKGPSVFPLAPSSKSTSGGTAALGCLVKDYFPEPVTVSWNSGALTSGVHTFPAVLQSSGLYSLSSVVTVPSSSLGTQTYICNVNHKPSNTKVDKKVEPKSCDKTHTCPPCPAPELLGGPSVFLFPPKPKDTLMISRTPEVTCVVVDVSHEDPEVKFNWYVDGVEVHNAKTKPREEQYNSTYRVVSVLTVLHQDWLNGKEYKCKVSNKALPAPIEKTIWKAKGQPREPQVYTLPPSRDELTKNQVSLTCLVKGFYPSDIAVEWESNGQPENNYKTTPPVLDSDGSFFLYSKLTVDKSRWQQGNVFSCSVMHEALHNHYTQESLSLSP
light: B1 light
notes: also called Ho Ab S337_20W
B21: GpH7-B3 variant N325_04F/GpL16-k0 (antibody, human IgG1, kappa)
heavy: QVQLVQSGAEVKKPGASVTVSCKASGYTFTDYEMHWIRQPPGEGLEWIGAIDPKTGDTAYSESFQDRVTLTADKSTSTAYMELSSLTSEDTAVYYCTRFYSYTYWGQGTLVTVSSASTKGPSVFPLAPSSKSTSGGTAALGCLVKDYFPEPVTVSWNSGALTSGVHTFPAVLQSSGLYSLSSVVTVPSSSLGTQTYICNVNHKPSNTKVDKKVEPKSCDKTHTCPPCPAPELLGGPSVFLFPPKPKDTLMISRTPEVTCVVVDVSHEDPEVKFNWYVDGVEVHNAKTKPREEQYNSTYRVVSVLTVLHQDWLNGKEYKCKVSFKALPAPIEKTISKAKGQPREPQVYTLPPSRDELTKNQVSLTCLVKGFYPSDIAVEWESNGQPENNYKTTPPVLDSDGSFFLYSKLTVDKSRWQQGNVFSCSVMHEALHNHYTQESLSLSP
light: B1 light
notes: also called Ho Ab N325_04F
B22: GpH7-B3 variant N325_07I/GpL16-k0 (antibody, human IgG1, kappa)
heavy: not shown
light: B1 light
notes: also called Ho Ab N325_07I
B23: GpH7-B3 variant S298_06M/GpL16-k0 (antibody, human IgG1, kappa)
heavy: not shown
light: B1 light
notes: also called Ho Ab S298_06M
B24: GpH7-B3 variant P331_16H/GpL16-k0 (antibody, human IgG1, kappa)
heavy: not shown
light: B1 light
notes: also called Ho Ab P331_16H
B25: GpH7-B3 variant S267_01G/GpL16-k0 (antibody, human IgG1, kappa)
heavy: not shown
light: B1 light
notes: also called Ho Ab S267_01G
B26: GpH7-B3 variant P238_04F/GpL16-k0 (antibody, human IgG1, kappa)
heavy: not shown
light: B1 light
notes: also called Ho Ab P238_04F
B27: GpH7-B3 variant N325_01G/GpL16-k0 (antibody, human IgG1, kappa)
heavy: not shown
light: B1 light
notes: also called Ho Ab N325_01G
B28: GpH7-B3 variant S267_19Q/GpL16-k0 (antibody, human IgG1, kappa)
heavy: not shown
light: B1 light
notes: also called Ho Ab S267_19Q
B29: GpH7-B3 variant P331_15Y/GpL16-k0 (antibody, human IgG1, kappa)
heavy: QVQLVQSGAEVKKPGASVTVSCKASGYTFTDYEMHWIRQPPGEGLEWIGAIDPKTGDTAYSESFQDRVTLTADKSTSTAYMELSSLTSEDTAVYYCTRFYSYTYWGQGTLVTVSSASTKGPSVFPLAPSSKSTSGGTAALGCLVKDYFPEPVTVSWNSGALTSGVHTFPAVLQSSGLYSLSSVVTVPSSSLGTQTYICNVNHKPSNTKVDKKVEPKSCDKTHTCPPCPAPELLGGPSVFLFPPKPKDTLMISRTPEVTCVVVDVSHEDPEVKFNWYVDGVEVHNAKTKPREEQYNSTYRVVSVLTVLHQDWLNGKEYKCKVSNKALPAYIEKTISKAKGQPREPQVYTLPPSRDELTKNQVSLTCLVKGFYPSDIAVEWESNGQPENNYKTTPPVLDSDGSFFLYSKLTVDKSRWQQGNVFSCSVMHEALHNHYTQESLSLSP
light: B1 light
notes: also called Ho Ab P331_15Y
B30: GpH7-B3 variant S239_10E/GpL16-k0 (antibody, human IgG1, kappa)
heavy: not shown
light: B1 light
notes: also called Ho Ab S239_10E
B31: GpH7-B3 variant S337_08L/GpL16-k0 (antibody, human IgG1, kappa)
heavy: not shown
light: B1 light
notes: also called Ho Ab S337_08L
B32: GpH7-B3 variant S239_03V/GpL16-k0 (antibody, human IgG1, kappa)
heavy: not shown
light: B1 light
notes: also called Ho Ab S239_03V
B33: GpH7-B3 variant T335_07I/GpL16-k0 (antibody, human IgG1, kappa)
heavy: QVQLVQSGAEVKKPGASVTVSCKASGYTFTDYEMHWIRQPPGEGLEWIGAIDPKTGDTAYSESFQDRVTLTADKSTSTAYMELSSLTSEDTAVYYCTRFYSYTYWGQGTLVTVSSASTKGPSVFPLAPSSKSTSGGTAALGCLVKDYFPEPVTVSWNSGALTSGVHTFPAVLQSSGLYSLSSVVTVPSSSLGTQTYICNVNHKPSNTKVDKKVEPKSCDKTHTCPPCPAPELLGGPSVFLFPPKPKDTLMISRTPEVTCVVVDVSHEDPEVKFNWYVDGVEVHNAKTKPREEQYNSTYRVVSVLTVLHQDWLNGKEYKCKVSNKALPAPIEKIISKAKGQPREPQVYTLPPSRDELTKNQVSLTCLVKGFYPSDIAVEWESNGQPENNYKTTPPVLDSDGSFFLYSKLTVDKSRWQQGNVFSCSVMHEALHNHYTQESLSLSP
light: B1 light
notes: also called Ho Ab T335_07I
B34: GpH7-B3 variant L328_09D/GpL16-k0 (antibody, human IgG1, kappa)
heavy: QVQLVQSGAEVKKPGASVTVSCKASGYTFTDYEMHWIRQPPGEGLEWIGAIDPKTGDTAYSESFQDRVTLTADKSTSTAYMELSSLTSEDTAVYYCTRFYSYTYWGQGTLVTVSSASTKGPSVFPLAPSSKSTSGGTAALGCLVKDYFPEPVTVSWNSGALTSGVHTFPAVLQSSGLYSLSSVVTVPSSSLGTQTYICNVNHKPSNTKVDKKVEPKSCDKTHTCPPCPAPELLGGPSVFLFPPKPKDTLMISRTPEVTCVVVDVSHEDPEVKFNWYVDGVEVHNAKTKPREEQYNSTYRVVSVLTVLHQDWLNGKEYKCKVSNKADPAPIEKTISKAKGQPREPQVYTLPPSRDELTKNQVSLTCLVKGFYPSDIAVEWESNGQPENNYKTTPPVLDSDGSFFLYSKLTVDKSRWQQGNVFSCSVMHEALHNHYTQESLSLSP
light: B1 light
notes: also called Ho Ab L328_09D
B35: GpH7-B3 variant P331_20W/GpL16-k0 (antibody, human IgG1, kappa)
heavy: not shown
light: B1 light
notes: also called Ho Ab P331_20W
B36: GpH7-B3 variant P238_10E/GpL16-k0 (antibody, human IgG1, kappa)
heavy: not shown
light: B1 light
notes: also called Ho Ab P238_10E
B37: GpH7-B3 variant T335_19Q/GpL16-k0 (antibody, human IgG1, kappa)
heavy: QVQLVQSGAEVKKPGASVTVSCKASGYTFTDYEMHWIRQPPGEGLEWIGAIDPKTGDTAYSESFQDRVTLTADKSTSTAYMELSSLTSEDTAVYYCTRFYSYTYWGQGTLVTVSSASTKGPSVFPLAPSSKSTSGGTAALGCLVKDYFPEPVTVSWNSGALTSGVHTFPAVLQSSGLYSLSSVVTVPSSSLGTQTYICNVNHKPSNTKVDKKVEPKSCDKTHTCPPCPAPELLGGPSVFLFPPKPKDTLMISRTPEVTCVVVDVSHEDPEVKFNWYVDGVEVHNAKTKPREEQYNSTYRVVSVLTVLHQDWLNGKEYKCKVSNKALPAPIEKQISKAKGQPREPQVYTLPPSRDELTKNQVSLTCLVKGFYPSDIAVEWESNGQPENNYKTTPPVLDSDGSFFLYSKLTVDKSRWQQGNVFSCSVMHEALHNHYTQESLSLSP
light: B1 light
notes: also called Ho Ab T335_19Q
B38: GpH7-B3 variant L328_10E/GpL16-k0 (antibody, human IgG1, kappa)
heavy: not shown
light: B1 light
notes: also called Ho Ab L328_10E
B39: GpH7-B3 variant L328_02A/GpL16-k0 (antibody, human IgG1, kappa)
heavy: not shown
light: B1 light
notes: also called Ho Ab L328_02A
B40: GpH7-B3 variant P331_03V/GpL16-k0 (antibody, human IgG1, kappa)
heavy: not shown
light: B1 light
notes: also called Ho Ab P331_03V
B41: GpH7-B3 variant P238_16H/GpL16-k0 (antibody, human IgG1, kappa)
heavy: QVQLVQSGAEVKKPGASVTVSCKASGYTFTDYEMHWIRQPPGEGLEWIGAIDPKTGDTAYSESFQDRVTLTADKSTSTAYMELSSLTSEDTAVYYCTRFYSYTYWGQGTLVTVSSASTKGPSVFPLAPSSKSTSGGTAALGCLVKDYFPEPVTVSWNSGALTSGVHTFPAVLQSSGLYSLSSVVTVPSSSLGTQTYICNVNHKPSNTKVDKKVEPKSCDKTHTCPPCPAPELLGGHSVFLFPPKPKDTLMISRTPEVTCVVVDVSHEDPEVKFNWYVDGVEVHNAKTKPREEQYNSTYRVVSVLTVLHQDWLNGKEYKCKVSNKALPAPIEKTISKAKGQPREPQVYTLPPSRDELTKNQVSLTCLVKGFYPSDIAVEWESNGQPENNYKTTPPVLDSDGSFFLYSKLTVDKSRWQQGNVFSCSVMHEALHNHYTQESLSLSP
light: B1 light
notes: also called Ho Ab P238_16H
B42: GpH7-B3 variant L235_20W/GpL16-k0 (antibody, human IgG1, kappa)
heavy: not shown
light: B1 light
notes: also called Ho Ab L235_20W
B43: GpH7-B3 variant S324_06M/GpL16-k0 (antibody, human IgG1, kappa)
heavy: not shown
light: B1 light
notes: also called Ho Ab S324_06M
B44: GpH7-B3 variant S239_05P/GpL16-k0 (antibody, human IgG1, kappa)
heavy: not shown
light: B1 light
notes: also called Ho Ab S239_05P
B45: GpH7-B3 variant T335_13S/GpL16-k0 (antibody, human IgG1, kappa)
heavy: not shown
light: B1 light
notes: also called Ho Ab T335_13S
B46: GpH7-B3 variant N325_08L/GpL16-k0 (antibody, human IgG1, kappa)
heavy: not shown
light: B1 light
notes: also called Ho Ab N325_08L
B47: GpH7-B3 variant S337_18N/GpL16-k0 (antibody, human IgG1, kappa)
heavy: not shown
light: B1 light
notes: also called Ho Ab S337_18N
B48: GpH7-B3 variant L235_15Y/GpL16-k0 (antibody, human IgG1, kappa)
heavy: not shown
light: B1 light
notes: also called Ho Ab L235_15Y
B49: GpH7-B3 variant S337_16H/GpL16-k0 (antibody, human IgG1, kappa)
heavy: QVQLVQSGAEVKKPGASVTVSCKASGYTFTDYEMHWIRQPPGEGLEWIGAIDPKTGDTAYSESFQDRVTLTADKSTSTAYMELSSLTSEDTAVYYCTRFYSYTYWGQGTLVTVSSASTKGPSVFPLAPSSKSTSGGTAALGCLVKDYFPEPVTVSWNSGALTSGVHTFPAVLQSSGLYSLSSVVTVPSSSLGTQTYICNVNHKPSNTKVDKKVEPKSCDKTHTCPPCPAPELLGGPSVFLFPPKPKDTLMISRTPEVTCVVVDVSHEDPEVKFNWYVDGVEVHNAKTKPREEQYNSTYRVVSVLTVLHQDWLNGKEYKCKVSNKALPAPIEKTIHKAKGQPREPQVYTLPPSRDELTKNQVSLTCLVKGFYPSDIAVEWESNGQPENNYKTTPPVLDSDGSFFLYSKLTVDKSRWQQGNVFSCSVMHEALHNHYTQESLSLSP
light: B1 light
notes: also called Ho Ab S337_16H
B50: GpH7-B3 variant P331_10E/GpL16-k0 (antibody, human IgG1, kappa)
heavy: not shown
light: B1 light
notes: also called Ho Ab P331_10E
B51: GpH7-B3 variant T335_16H/GpL16-k0 (antibody, human IgG1, kappa)
heavy: not shown
light: B1 light
notes: also called Ho Ab T335_16H
B52: GpH7-B3 variant S267_06M/GpL16-k0 (antibody, human IgG1, kappa)
heavy: not shown
light: B1 light
notes: also called Ho Ab S267_06M
B53: GpH7-B3 variant P238_15Y/GpL16-k0 (antibody, human IgG1, kappa)
heavy: not shown
light: B1 light
notes: also called Ho Ab P238_15Y
B54: GpH7-B3 variant P331_07I/GpL16-k0 (antibody, human IgG1, kappa)
heavy: not shown
light: B1 light
notes: also called Ho Ab P331_07I
B55: GpH7-B3 variant S337_07I/GpL16-k0 (antibody, human IgG1, kappa)
heavy: not shown
light: B1 light
notes: also called Ho Ab S337_07I
B56: GpH7-B3 variant P238_19Q/GpL16-k0 (antibody, human IgG1, kappa)
heavy: not shown
light: B1 light
notes: also called Ho Ab P238_19Q

target: T1, FcγRIIb (human, UniProt P31994 43-217); assay: SPR (Biacore), binding relative to GpH7-B3/GpL16-k0 = 100
T1 construct: extracellular domain; also called 2b; FcgRIIb
T1 sequence (looked up): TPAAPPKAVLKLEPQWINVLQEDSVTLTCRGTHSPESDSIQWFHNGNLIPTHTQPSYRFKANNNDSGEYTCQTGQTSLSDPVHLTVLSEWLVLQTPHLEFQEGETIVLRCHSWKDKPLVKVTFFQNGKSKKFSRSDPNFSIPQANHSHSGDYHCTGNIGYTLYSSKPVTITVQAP
Method: Analysis of interaction between objective antibody and the FcγR was carried out using Biacore T100 (GE Healthcare). HBS-EP+ (GE Healthcare) was used as the running buffer, and the measurement temperature was set to 25° C. Chips produced by immobilizing the antigen peptide by the amine coupling method to a Series S Sencor Chip CM5 (GE Healthcare), or alternatively, chips produced by allowing preliminarily biotinylated antigen peptides to interact with and immobilize onto a Series S Sensor Chip SA (certified) (GE Healthcare) were used. Antibodies of interest were captured onto an antigen peptide-immobilized chip, and allowed to interact to each FcγR diluted with running buffer. To regenerate and repeatedly use the chip, the antibodies captured on the chip were washed off by reacting 10 mM glycine-HCl, pH 1.5.
The FcγR-binding activity of each antibody was assessed primarily using as an indicator the FcγR-binding activity and dissociation constant for FcγR.

Binder	Ho/Con_2b
B1	78.7 % of control
B2	84.3 % of control
B3	44 % of control
B4	95 % of control
B5	96.1 % of control
B6	100 % of control
B7	12.6 % of control
B8	71.5 % of control
B9	97.1 % of control
B10	93.4 % of control
B11	96.6 % of control
B12	31.8 % of control
B13	108 % of control
B14	77 % of control
B15	147 % of control
B16	159 % of control
B17	159 % of control
B18	104 % of control
B19	207 % of control

Binder	Ho/Con_2b
B20	99.6 % of control
B21	65.7 % of control
B22	88.2 % of control
B23	101 % of control
B24	100 % of control
B25	97 % of control
B26	209 % of control
B27	20.2 % of control
B28	185 % of control
B29	111 % of control
B30	175 % of control
B31	90.7 % of control
B32	108 % of control
B33	104 % of control
B34	159 % of control
B35	111 % of control
B36	97.9 % of control
B37	97.3 % of control
B38	146 % of control

Binder	Ho/Con_2b
B39	117 % of control
B40	86.6 % of control
B41	18.8 % of control
B42	116 % of control
B43	104 % of control
B44	61 % of control
B45	95.2 % of control
B46	106 % of control
B47	98 % of control
B48	127 % of control
B49	103 % of control
B50	92.3 % of control
B51	97.2 % of control
B52	187 % of control
B53	114 % of control
B54	63.3 % of control
B55	96.6 % of control
B56	42.7 % of control
